Laboratory results reported in patent EP4786492A1.

How the values were obtained:
[1] = molecular target: DLL3 endogenously expressed on NCI-H82 cells (UniProt Q9NYJ7); experiment: FACS on NCI-H82 cells; antibody 100 nM
[2] = molecular target: monkey DLL3 on CHO-K1-cyno DLL3 cells (cynomolgus monkey); experiment: FACS, CHO-K1-cyno DLL3 cells, 100 nM antibody
[3] = molecular target: human DLL3 protein expressed on CHO-K1 recombinant cells (human DLL3 extracellular segment fused to EpCAM transmembrane and intracellular regions) (human) (UniProt Q9NYJ7); experiment: FACS, CHO-K1 hDLL3 cells, 0.16 nM antibody
[4] = molecular target: DLL3 endogenously expressed on NCI-H82 cells (UniProt Q9NYJ7); experiment: FACS on NCI-H82 cells; antibody 0.0064 nM
[5] = molecular target: human DLL1 protein (Acro, Cat. No. DL1-H52H8) (human) (UniProt O00548); experiment: ELISA, coated hDLL1; maximum over 0.1, 1, 10, 100 nM antibody
[6] = molecular target: human DLL3 protein expressed on CHO-K1 recombinant cells (human DLL3 extracellular segment fused to EpCAM transmembrane and intracellular regions) (human) (UniProt Q9NYJ7); experiment: FACS, CHO-K1 hDLL3 cells, 0.00128 nM antibody
[7] = molecular target: DLL3 endogenously expressed on NCI-H82 cells (UniProt Q9NYJ7); experiment: FACS on NCI-H82 cells; antibody 0.8 nM
[8] = molecular target: human DLL3 protein expressed on CHO-K1 recombinant cells (human DLL3 extracellular segment fused to EpCAM transmembrane and intracellular regions) (human) (UniProt Q9NYJ7); experiment: FACS, CHO-K1 hDLL3 cells, 4 nM antibody
[9] = molecular target: human delta-like ligand 3 (DLL3) on SHP77 cells (human) (UniProt Q9NYJ7); experiment: FACS on SHP77 cells
[10] = molecular target: human DLL3 protein expressed on CHO-K1 recombinant cells (human DLL3 extracellular segment fused to EpCAM transmembrane and intracellular regions) (human) (UniProt Q9NYJ7); experiment: FACS, CHO-K1 hDLL3 cells, 100 nM antibody
[11] = molecular target: human DLL3 protein expressed on CHO-K1 recombinant cells (human DLL3 extracellular segment fused to EpCAM transmembrane and intracellular regions) (human) (UniProt Q9NYJ7); experiment: FACS, CHO-K1 hDLL3 cells, 20 nM antibody
[12] = molecular target: DLL3 endogenously expressed on NCI-H82 cells (UniProt Q9NYJ7); experiment: FACS on NCI-H82 cells; antibody 4 nM
[13] = molecular target: monkey DLL3 on CHO-K1-cyno DLL3 cells (cynomolgus monkey); experiment: FACS, CHO-K1-cyno DLL3 cells, 0.16 nM antibody
[14] = molecular target: human DLL3 protein expressed on CHO-K1 recombinant cells (human DLL3 extracellular segment fused to EpCAM transmembrane and intracellular regions) (human) (UniProt Q9NYJ7); experiment: FACS, CHO-K1 hDLL3 cells, 0.8 nM antibody
[15] = molecular target: human DLL3 protein expressed on CHO-K1 recombinant cells (human DLL3 extracellular segment fused to EpCAM transmembrane and intracellular regions) (human) (UniProt Q9NYJ7); experiment: FACS, CHO-K1 hDLL3 cells, 0.032 nM antibody
[16] = molecular target: DLL3 endogenously expressed on NCI-H82 cells (UniProt Q9NYJ7); experiment: FACS on NCI-H82 cells; antibody 20 nM
[17] = molecular target: monkey DLL3 on CHO-K1-cyno DLL3 cells (cynomolgus monkey); experiment: FACS, CHO-K1-cyno DLL3 cells, 0.8 nM antibody
[18] = molecular target: monkey DLL3 on CHO-K1-cyno DLL3 cells (cynomolgus monkey); experiment: FACS, CHO-K1-cyno DLL3 cells, 0.00128 nM antibody
[19] = molecular target: monkey DLL3 on CHO-K1-cyno DLL3 cells (cynomolgus monkey); experiment: FACS, CHO-K1-cyno DLL3 cells, 20 nM antibody
[20] = molecular target: human DLL4 protein (Acro, Cat. No. DL4-H5227) (human) (UniProt Q9NR61); experiment: ELISA, coated hDLL4; maximum over 0.1, 1, 10, 100 nM antibody
[21] = molecular target: human DLL3 protein expressed on CHO-K1 recombinant cells (human DLL3 extracellular segment fused to EpCAM transmembrane and intracellular regions) (human) (UniProt Q9NYJ7); experiment: FACS, CHO-K1 hDLL3 cells, 0.0064 nM antibody
[22] = molecular target: DLL3 endogenously expressed on NCI-H82 cells (UniProt Q9NYJ7); experiment: FACS on NCI-H82 cells; antibody 0.032 nM
[23] = molecular target: monkey DLL3 on CHO-K1-cyno DLL3 cells (cynomolgus monkey); experiment: FACS, CHO-K1-cyno DLL3 cells, 0.0064 nM antibody
[24] = molecular target: DLL3 endogenously expressed on NCI-H82 cells (UniProt Q9NYJ7); experiment: FACS on NCI-H82 cells; antibody 0.16 nM
[25] = molecular target: monkey DLL3 on CHO-K1-cyno DLL3 cells (cynomolgus monkey); experiment: FACS, CHO-K1-cyno DLL3 cells, 0.032 nM antibody
[26] = molecular target: DLL3 endogenously expressed on NCI-H82 cells (UniProt Q9NYJ7); experiment: FACS on NCI-H82 cells; antibody 0.00128 nM
[27] = molecular target: monkey DLL3 on CHO-K1-cyno DLL3 cells (cynomolgus monkey); experiment: FACS, CHO-K1-cyno DLL3 cells, 4 nM antibody
[28] = molecular target: human DLL3 protein (extracellular segment, His tag) (human) (UniProt Q9NYJ7); experiment: SPR (Biacore 8K), antibody captured on Protein A chip, DLL3 antigen in solution, 1:1 Langmuir fit
human DLL3 protein (extracellular segment, His tag) (human), sequence (Q9NYJ7 27-492): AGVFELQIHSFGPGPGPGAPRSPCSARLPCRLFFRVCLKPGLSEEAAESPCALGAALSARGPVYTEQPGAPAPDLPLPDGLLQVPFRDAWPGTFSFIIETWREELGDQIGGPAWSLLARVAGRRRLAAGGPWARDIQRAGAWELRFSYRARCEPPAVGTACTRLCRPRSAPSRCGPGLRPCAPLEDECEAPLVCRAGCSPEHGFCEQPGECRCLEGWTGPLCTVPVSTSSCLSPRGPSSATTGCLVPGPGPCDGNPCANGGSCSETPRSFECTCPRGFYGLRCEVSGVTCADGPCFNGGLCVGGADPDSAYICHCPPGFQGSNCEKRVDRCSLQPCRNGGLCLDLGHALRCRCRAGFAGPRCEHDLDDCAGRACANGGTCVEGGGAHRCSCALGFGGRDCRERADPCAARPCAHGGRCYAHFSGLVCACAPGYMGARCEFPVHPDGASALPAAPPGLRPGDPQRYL

human DLL3 protein expressed on CHO-K1 recombinant cells (human DLL3 extracellular segment fused to EpCAM transmembrane and intracellular regions) (human), sequence (Q9NYJ7 other isoform, or with tags, fused parts or gaps limits assumed): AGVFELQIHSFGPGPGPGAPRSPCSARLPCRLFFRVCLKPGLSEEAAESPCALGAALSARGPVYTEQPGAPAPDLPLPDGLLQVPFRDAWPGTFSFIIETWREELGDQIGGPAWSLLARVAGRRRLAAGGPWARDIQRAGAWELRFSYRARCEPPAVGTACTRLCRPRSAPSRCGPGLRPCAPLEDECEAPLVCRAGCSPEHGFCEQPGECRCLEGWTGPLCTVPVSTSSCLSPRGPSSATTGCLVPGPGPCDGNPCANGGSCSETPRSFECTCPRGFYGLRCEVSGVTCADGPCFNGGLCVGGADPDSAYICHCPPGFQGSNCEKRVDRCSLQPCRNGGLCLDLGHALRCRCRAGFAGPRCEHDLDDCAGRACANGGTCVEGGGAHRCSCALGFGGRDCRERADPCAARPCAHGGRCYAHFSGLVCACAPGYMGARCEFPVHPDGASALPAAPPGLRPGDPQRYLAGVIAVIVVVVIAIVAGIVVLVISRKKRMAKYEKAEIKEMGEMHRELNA
human DLL4 protein (Acro, Cat. No. DL4-H5227) (human), sequence (Q9NR61 27-524 limits assumed): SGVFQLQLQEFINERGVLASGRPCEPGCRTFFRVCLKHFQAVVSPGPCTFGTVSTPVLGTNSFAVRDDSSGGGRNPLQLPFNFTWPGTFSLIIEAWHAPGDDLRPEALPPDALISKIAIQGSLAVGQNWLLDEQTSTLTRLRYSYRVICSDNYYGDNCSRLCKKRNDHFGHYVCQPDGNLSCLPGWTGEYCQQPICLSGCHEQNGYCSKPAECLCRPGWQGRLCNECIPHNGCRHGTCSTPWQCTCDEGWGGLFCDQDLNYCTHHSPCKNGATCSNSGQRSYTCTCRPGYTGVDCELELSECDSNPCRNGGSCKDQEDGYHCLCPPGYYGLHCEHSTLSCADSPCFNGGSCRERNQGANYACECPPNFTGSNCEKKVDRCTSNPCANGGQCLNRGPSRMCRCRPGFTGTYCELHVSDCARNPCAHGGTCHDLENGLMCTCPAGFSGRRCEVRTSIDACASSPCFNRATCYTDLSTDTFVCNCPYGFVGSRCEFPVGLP
human DLL1 protein (Acro, Cat. No. DL1-H52H8) (human), sequence (O00548 18-540 limits assumed): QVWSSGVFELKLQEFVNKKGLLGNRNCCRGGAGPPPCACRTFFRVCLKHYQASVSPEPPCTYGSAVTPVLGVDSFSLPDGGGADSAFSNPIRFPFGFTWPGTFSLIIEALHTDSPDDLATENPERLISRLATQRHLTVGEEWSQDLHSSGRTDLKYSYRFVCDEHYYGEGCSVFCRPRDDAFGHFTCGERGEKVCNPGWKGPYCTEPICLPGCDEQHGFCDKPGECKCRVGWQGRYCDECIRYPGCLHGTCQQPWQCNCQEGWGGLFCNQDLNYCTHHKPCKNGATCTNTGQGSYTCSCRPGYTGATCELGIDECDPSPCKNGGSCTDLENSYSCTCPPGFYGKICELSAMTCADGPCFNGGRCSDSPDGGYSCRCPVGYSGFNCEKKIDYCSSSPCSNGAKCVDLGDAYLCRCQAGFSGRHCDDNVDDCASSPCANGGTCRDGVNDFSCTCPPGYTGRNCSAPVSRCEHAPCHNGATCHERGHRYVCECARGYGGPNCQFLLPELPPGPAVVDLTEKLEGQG
DLL3 endogenously expressed on NCI-H82 cells, sequence (Q9NYJ7 27-618): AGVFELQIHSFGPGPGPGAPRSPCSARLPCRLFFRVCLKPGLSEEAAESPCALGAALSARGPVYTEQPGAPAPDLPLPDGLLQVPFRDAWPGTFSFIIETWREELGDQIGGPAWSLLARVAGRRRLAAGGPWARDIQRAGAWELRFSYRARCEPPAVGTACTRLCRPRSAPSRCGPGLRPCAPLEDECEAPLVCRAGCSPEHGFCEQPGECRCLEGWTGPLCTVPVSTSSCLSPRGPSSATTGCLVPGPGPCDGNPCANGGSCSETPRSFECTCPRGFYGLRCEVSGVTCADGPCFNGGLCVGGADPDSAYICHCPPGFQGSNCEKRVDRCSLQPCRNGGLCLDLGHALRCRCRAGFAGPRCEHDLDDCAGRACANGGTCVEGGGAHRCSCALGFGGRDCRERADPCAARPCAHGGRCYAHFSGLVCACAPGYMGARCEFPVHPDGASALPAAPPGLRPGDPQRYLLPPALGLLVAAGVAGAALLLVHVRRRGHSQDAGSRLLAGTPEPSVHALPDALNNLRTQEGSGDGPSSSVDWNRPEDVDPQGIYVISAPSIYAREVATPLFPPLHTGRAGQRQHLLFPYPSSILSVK
human delta-like ligand 3 (DLL3) on SHP77 cells (human), sequence (Q9NYJ7 27-618, stated change not applied): as the sequence (Q9NYJ7 27-618) above
monkey DLL3 on CHO-K1-cyno DLL3 cells (cynomolgus monkey), sequence (chain, as listed by the source limits assumed): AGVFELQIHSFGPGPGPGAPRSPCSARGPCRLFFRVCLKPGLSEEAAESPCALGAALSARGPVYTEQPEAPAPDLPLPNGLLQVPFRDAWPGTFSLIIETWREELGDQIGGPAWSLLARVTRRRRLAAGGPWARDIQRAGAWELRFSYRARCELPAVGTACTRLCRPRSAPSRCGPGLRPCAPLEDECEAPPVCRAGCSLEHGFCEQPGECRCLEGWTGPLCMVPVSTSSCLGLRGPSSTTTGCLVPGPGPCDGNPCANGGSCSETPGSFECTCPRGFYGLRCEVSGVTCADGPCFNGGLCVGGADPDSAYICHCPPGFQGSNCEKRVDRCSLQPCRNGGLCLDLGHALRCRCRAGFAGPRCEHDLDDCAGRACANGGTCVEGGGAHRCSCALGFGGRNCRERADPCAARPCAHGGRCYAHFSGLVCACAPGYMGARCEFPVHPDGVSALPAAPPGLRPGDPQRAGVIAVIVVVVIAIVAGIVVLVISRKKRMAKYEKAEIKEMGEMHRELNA

| MFI [1] | MFI [2] | MFI [3] | MFI [4] | Emax of OD450 nm binding value [5] | MFI [6] | MFI [7] | MFI [8] | MFI at 0.00128 nM [9] | MFI at 0.0064 nM [9] | MFI at 0.032 nM [9] | MFI at 0.16 nM [9] | MFI at 0.8 nM [9] | MFI at 4 nM [9] | MFI at 20 nM [9] | MFI at 100 nM [9] | MFI [10] | MFI [11] | MFI [12] | MFI [13] | Binder | also measured |
| --- | --- | --- | --- | --- | --- | --- | --- | --- | --- | --- | --- | --- | --- | --- | --- | --- | --- | --- | --- | --- | --- |
| 1340 | 21600 MFI | 671 MFI | 90 | 0.11 OD450 nm | 100 MFI | 152 | 7140 MFI | 117 MFI | 117 MFI | 122 MFI | 133 MFI | 194 MFI | 330 MFI | 634 MFI | 974 MFI | 8950 MFI | 8320 MFI | 388 | 724 MFI | Hab008L3H5-hFc (scFv, part only; not given: scFv linker and human IgG1 Fc, V domains shown, not shown: another chain or arm of the molecule; a dimerising Fc or GST; small tags and cut ends) VL: DIVMTQSPDSLAVSLGERATINCKASQNVGTAVAWYQQKPGQSPKLLIFSASIRYTGVPDRFSGSGSGTDFTLTISSLQAEDVAVYYCQQYSSSPYTFGGGTKVEIK VH: EVQLVQSGAEVKKPGASVKVSCKASGYTFTDYYMNWVRRAPGQRLEWMGIINPYNGGTSYNQKFRGRVTITVDKSASTAYMELSSLRSEDTAVYYCSRYDYDYDVEGAMDYWGQGTTVTVSS | MFI [14]: 2370 MFI; MFI [15]: 235 MFI; MFI [16]: 674; MFI [17]: 3470 MFI; MFI [18]: 103 MFI; MFI [19]: 20300 MFI; Emax of OD450 nm binding value [20]: 0.18 OD450 nm; MFI [21]: 131 MFI; MFI [22]: 91; MFI [23]: 142 MFI; MFI [24]: 102; MFI [25]: 252 MFI; MFI [26]: 99; MFI [27]: 12900 MFI; Kd [28]: 0.902 nM; koff [28]: 0.000312 s⁻¹; kon [28]: 345000 M⁻¹ s⁻¹ |
| 550 | 21400 MFI | 715 MFI | 89 | 0.04 OD450 nm | 98 MFI | 135 | 7190 MFI | 117 MFI | 117 MFI | 121 MFI | 129 MFI | 168 MFI | 255 MFI | 426 MFI | 613 MFI | 7600 MFI | 8200 MFI | 307 | 928 MFI | Hab008L3H2a-hFc (scFv, part only; not given: VL-VH linker and human IgG1 Fc, V domains shown, not shown: another chain or arm of the molecule; a dimerising Fc or GST; small tags and cut ends) VL: DIVMTQSPDSLAVSLGERATINCKASQNVGTAVAWYQQKPGQSPKLLIFSASIRYTGVPDRFSGSGSGTDFTLTISSLQAEDVAVYYCQQYSSSPYTFGGGTKVEIK VH: EVQLVQSGAEVKKPGASVKVSCKASGYTFTDYYMNWVRQAPGQRLEWMGIINPYNSGTSYNQKFRGRVTLTVDKSASTAYMELSSLRSEDTAVYYCSRYDYDYDVEGAMDYWGQGTTVTVSS | MFI [14]: 2700 MFI; MFI [15]: 240 MFI; MFI [16]: 448; MFI [17]: 3980 MFI; MFI [18]: 103 MFI; MFI [19]: 21300 MFI; Emax of OD450 nm binding value [20]: 0.04 OD450 nm; MFI [21]: 126 MFI; MFI [22]: 90; MFI [23]: 148 MFI; MFI [24]: 97; MFI [25]: 329 MFI; MFI [26]: 85; MFI [27]: 14800 MFI; Kd [28]: 0.529 nM; koff [28]: 0.000405 s⁻¹; kon [28]: 766000 M⁻¹ s⁻¹ |
| 1860 | 18400 MFI | 521 MFI | 106 | 0.24 OD450 nm | 103 MFI | 245 | 6530 MFI | 121 MFI | 120 MFI | 123 MFI | 139 MFI | 186 MFI | 333 MFI | 793 MFI | 1530 MFI | 8400 MFI | 7750 MFI | 539 | 711 MFI | Hab008L1H5-hFc (scFv, part only; not given: VL-VH linker and human IgG1 Fc, V domains shown, not shown: another chain or arm of the molecule; a dimerising Fc or GST; small tags and cut ends) VL: DIQMTQSPSSLSASVGDRVTITCKASQNVGTAVAWYQQKPGKSPKLLIFSASIRYTGVPSRFSGSGSGTDFTLTISSLQPEDFATYYCQQYSSSPYTFGGGTKVEIK VH: EVQLVQSGAEVKKPGASVKVSCKASGYTFTDYYMNWVRRAPGQRLEWMGIINPYNGGTSYNQKFRGRVTITVDKSASTAYMELSSLRSEDTAVYYCSRYDYDYDVEGAMDYWGQGTTVTVSS | MFI [14]: 2170 MFI; MFI [15]: 221 MFI; MFI [16]: 1020; MFI [17]: 2940 MFI; MFI [18]: 116 MFI; MFI [19]: 18400 MFI; Emax of OD450 nm binding value [20]: 0.69 OD450 nm; MFI [21]: 127 MFI; MFI [22]: 114; MFI [23]: 159 MFI; MFI [24]: 149; MFI [25]: 286 MFI; MFI [26]: 102; MFI [27]: 12100 MFI |
